Test results published in patent publication US20240336649A1 (MIT, published 2024).

B1: Myc analog 10 (synthetic Myc monomer with a C-terminal cysteine) (other)
chain: NVKRRTHNVLERQRRNELKRSFFALRDQIPELENNEKAPKVVILKKATAYILSVQAEEQKLISEEDLLRKRREQLKHKLEQLGGC
notes: also called Myc 10
B2: Omomyc analog 12 (synthetic Omomyc monomer with a C-terminal cysteine) (other)
chain: MATEENVKRRTHNVLERQRRNELKRSFFALRDQIPELENNEKAPKVVILKKATAYILSVQAETQKLISEIDLLRKQNEQLKHKLEQLRNSC
notes: Artificial mini-protein; the structure of 12 is in a drawing; also called Omomyc 12; Omomyc (12)

What was measured:
[1] = biological target: the molecule itself; test: EMSA with a 22 bp double-stranded E-box DNA probe. This is an indirect sign: the gel shows DNA binding, and the filing reads the missing shift as missing homodimerisation.
Text: (§1) The three synthetic analogs 10, 11, and 12 can form non-covalent dimers and bind to the target E-box DNA (5′-[…]-3′). […] However, it is not possible to determine which dimeric species form in a solution containing two different monomers. For instance, upon mixing Max (11) and Omomyc (12), three different dimers (Max/Max, Omomyc/Omomyc and Max/Omomyc) can form and potentially bind to DNA (FIG. 18). To assess the activity of these protein complexes in a reliable manner, access to well-defined covalent protein dimers is critical.

[2] = biological target: the molecule itself; test: non-covalent homodimer inferred from EMSA with E-box DNA (Omomyc+Omomyc)
Text: as §1

Protein	binding result [1]	binding result [2]
B1	no binding	
B2		binds
